Results from US20110312897A1, “CATHEPSIN L PROTEOLYTICALLY PROCESSES HISTONE H3 DURING MOUSE EMBRYONIC STEM CELL DIFFERENTIATION” (THE ROCKEFELLER UNIVERSITY, priority 2008, published 2011).

System: rH3-HIS
Assay: H3 cleavage assay with recombinant cathepsins
Assay type: biochemical, mouse
Protocol: Extracts were incubated in buffer (10 mM HEPES, 10 mM KCl, 1.5 mM MgCl2, 0.34M sucrose, 10% glycerol, 5 mM β-mercaptoethanol, all final) with 0.1 μg/μl rH3-HIS (purified from E. coli) and incubated at 37° C. for 1-3 hours. Reactions were stopped by addition of 5×SDS sample buffer and boiling; results were analyzed by immunoblotting with HIS-HRP and/or H3.cs1 antibody. For MS analysis, reactions were quenched by addition of 0.1% (final) TFA. rCathepsin L (R&D Systems, # 1515-CY-010), rCathepsin B (R&D Systems Cat No. BAF965), and rCathepsin K (Calbiochem Cat. No. 342001) were purchased from commercial sources and tested in the assay with rH3-HIS.
To further validate the identification of Cathepsin L as an H3 protease, recombinant mouse Cathepsin L enzyme was tested in the H3 cleavage assay (FIG. 5). […] To further characterize the sites of proteolytic cleavage, the reaction products of rCathepsin L and rH3-HIS were analyzed by MS. […] Also observed in both reactions were five of the six complementary N-terminal peptides generated by rCathepsin L cleavage of H3 (left), and their abundances correlated, as expected, with that of their C-terminal counterparts. […] In addition, the relative abundances of the in vivo H3 cleavage sites and those produced by Cathepsin L in vitro are highly correlative. […] Taken together, the above data support the conclusion that Cathepsin L is capable of generating all of the histone H3.2 fragments observed at day three following induction of ESC differentiation by retinoic acid.
Other cathepsin family members were then tested in the H3 cleavage assay. rCathepsin B, one of the most abundant lysosomal proteases, and rCathepsin K, which is reported to have a significant preference for leucine in the P2 position of its substrates much like Cathepsin L, were chosen to be tested first (Cathepsin S also shares this preference but was not found to have significant expression in our ESC model). Following pre-activation the recombinant enzymes, Cathepsins B, K, and L were incubated with rH3-HIS at both pH 5.5. and pH 7.5, and the reactions were then analyzed by immunoblotting with both HIS and H3.cs1 antibodies.

[1] = pre-activated enzymes, pH 5.5 and pH 7.5

Molecule	cleavage of recombinant histone H3 (pH 5.5 and pH 7.4)	generation of epitope recognized by H3.cs1 antibody (pH 5.5 and pH 7.4)	rH3-HIS cleavage pattern [1]	H3.cs1 epitope production [1]
recombinant mouse Cathepsin L: recombinant mouse Cathepsin L enzyme (R&D Systems, # 1515-CY-010) (protein) TPKFDQTFSAEWHQWKSTHRRLYGTNEEEWRRAIWEKNMRMIQLHNGEYSNGQHGFSMEMNAFGDMTNEEFRQVVNGYRHQKHKKGRLFQEPLMLKIPKSVDWREKGCVTPVKNQGQCGSCWAFSASGCLEGQMFLKTGKLISLSEQNLVDCSHAQGNQGCNGGLMDFAFQYIKENGGLDSEESYPYEAKDGSCKYRAEFAVANDTGFVDIPQQEKALMKAVATVGPISVAMDASHPSLQFYSSGIYYEPNCSSKNLDHGVLLVGYGYEGTDSNKNKYWLVKNSWGSEWGMEGYIKIAKDRDNHCGLATAASYPVVN	able to cleave recombinant histone H3	created the specific epitope	cleaves rH3-HIS robustly	
Cathepsin K: recombinant Cathepsin K (Calbiochem Cat. No. 342001) (protein, UniProt P43235 115-329, looked up) Cathepsin K: APDSVDYRKKGYVTPVKNQGQCGSCWAFSSVGALEGQLKKKTGKLLNLSPQNLVDCVSENDGCGGGYMTNAFQYVQKNRGIDSEDAYPYVGQEESCMYNPTGKAAKCRGYREIPEGNEKALKRAVARVGPVSVAIDASLTSFQFYSKGVYYDESCNSDNLNHAVLAVGYGIQKGNKHWIIKNSWGENWGNKGYILMARNKNNACGIANLASFPKM				less abundant
